We go through 78 sequences from the supplement of paper PMC10126150.

± gives the standard deviation of the averaged measurements.
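Note: ATP exposure 15 min at 22 °C before imaging.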

The test system of this series is ATP. Kind of series: switch fluorescence ratio, 500 uM ATP over buffer (Cy3 cluster intensity, sum of 5 cycles each) (fold (ratio)); higher = stronger signal-on switching upon ATP binding; sequences stand for … in TCGTCGGCAGCGTCAGATGTGTATAAGAGACAGTTTTTTTTTTTTTTTTTTTTTTTTT…TC. The conditions noted are these: aptamer strand: ATP DNA aptamer (quencher-CACCTGGGGGAGTATTGCGGAGGAAGG + anchor), 100 nM annealed; ATP concentration: 500 uM. In short, it runs like this: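 After annealing to 100 nM quencher-labelled ATP aptamer, Cy3-labelled switching-strand clusters on a modified Illumina MiSeq flow-cell were imaged in selection buffer. A second image followed after 15 min with 500 uM ATP at 22 °C, and five such buffer/ATP cycles were done, each separated by NaOH stripping and re-annealing. The fluorescence ratio, averaged per switch-domain sequence, is summed target-cycle over summed buffer-cycle Cy3 intensity per cluster, with clusters outside 100-1000 RFU excluded.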
Turning to TATGGGATGT, the switch fluorescence ratio turned out to be 0.988 ± 0.016.

With ACCGGTTGGT, the switch fluorescence ratio turned out to be 0.976 ± 0.01. Take CTTCTTGTGG: the switch fluorescence ratio was determined as 0.9925 ± 0.009. GTAAGGGATG: the switch fluorescence ratio was found to be 1.01 ± 0.016. The same measure for CTTTCTCAA: 1.32 ± 0.44; for TCTATAAGGA: 1.01 ± 0.048; for AGGAATGAGG: 0.958 ± 0.011. The same measure for ATACGGGGCT: 1.03 ± 0.027. For GAAGGCATTT, the switch fluorescence ratio amounted to 1.16 ± 0.28. For TTGGCTTAGA, the switch fluorescence ratio came to 1.001 ± 0.01. In the case of TTTGGAGTT, the switch fluorescence ratio was determined as 1 ± 0.02. GCAGGTCGCG: the switch fluorescence ratio is 1.01 ± 0.024. The same measure for TACACTGGGT: 0.999 ± 0.022; for GGATTAGTGT: 0.987 ± 0.032. In the case of AGAAGGGCA, the switch fluorescence ratio was 0.983 ± 0.042.

Turning to TTACCGGTAG, the switch fluorescence ratio stood at 0.993 ± 0.059. For the sequence TATGTTGTAT, the switch fluorescence ratio amounted to 0.984 ± 0.053. Consider ATTACGGGGT, for which the switch fluorescence ratio was 1.01 ± 0.044. With TAAAGAGTAG the figure was 1 ± 0.042. With AACGGGAGAC the figure was 2.52 ± 0.24; with TAGCTCATTA, 0.979 ± 0.019; with TATAATGGGC, 0.965 ± 0.031. With CGTTTGATGG, the switch fluorescence ratio was determined as 0.9807 ± 0.0047. With GAACCAGGGG the figure was 1.27 ± 0.088; with AATTTAGCCA, 1.02 ± 0.018; with GCTGTAGGTC, 1.04 ± 0.013.

As for CCGTGATGGG, the switch fluorescence ratio was found to be 1.14 ± 0.066.

As to AGAGTGGGGG, the switch fluorescence ratio was 0.971 ± 0.065. With TTATTGTTAC, the switch fluorescence ratio was 1.03 ± 0.036. With CTGCGGGAGG, the switch fluorescence ratio came out at 1.008 ± 0.0024. With AGTAAAGTCT the figure was 1.04 ± 0.035; with CGGCTTAGTA, 0.988 ± 0.062. The same measure for TGGGGAAGGT: 0.994 ± 0.022. Consider GACCTTTAAA, for which the switch fluorescence ratio stood at 1.02 ± 0.011. For the sequence TAAGGTGGGG, the switch fluorescence ratio was determined as 0.987 ± 0.021. The same measure for GCTATTATTA: 0.974 ± 0.045. With AGGGATGGGG the figure was 0.976 ± 0.016; with GGACTTAGGG, 0.9839 ± 0.0075. As for GGGGGCGGAC, the switch fluorescence ratio turned out to be 0.974 ± 0.097. The same measure for GAACAGGGGG: 1.01 ± 0.046; for AGGCAGTCCA: 1.003 ± 0.0065. The same measure for TGAGTGCTGG: 0.9741 ± 0.0017; for ATATTGTTGG: 0.972 ± 0.031; for ATGAAAAATT: 1.01 ± 0.031. With GCCGGCTTCT the figure was 1.02 ± 0.016; with TTCCGGGGCG, 0.991 ± 0.038. For the sequence CTTGAAGTTA, the switch fluorescence ratio was found to be 1 ± 0.011. The same measure for ACCCATCCAT: 1.02 ± 0.017. As to CGGGGGGGTG, the switch fluorescence ratio came out at 1.03 ± 0.096.

In the case of TTTTCGTGAA, the switch fluorescence ratio was 1.01 ± 0.021. Take CATGGGGATT: the switch fluorescence ratio worked out at 1.017 ± 0.0057. The same measure for TGGATGTTTG: 1.02 ± 0.018; for CCGCTTCCGG: 1.08 ± 0.018; for TATTAATTAT: 1.01 ± 0.022. For GGTTTTTAAA, the switch fluorescence ratio worked out at 1 ± 0.062.

Take TAAGCAGTTT: the switch fluorescence ratio stood at 1.038 ± 0.0027. Turning to GCTTCTGGGT, the switch fluorescence ratio came to 0.996 ± 0.017. For the sequence TGGTTTAATG, the switch fluorescence ratio amounted to 0.997 ± 0.015.

On to ATTTATGTGG, for which the switch fluorescence ratio is 0.998 ± 0.02. The same measure for CAATTCAGGA: 1.01 ± 0.036; for CAGTCAGCGG: 1.01 ± 0.02; for AGACATCTTT: 1.016 ± 0.0062. The same measure for TTTTCCTAAA: 1.06 ± 0.11; for CGAGTTGGCT: 1 ± 0.032; for AATCATGCGA: 0.9964 ± 0.0078.

Turning to CAAGGACTGG, the switch fluorescence ratio amounted to 0.997 ± 0.032. The same measure for GGGGTGCCCG: 0.948 ± 0.018. Turning to TTACCTGGGG, the switch fluorescence ratio turned out to be 1.03 ± 0.038.

On to TCAAATTCGG, for which the switch fluorescence ratio was determined as 1.01 ± 0.011. In the case of GCGTCTTTAC, the switch fluorescence ratio was 1.13 ± 0.024. The same measure for CATCCGGCCG: 1.194 ± 0.0019; for CCTATTATTG: 0.98 ± 0.028; for GGTATAGGGT: 0.981 ± 0.01. The same measure for ATGAAGTCGC: 1.01 ± 0.025.

As to AATGGATGCG, the switch fluorescence ratio turned out to be 1 ± 0.029.

Consider CTGGTATAGG, for which the switch fluorescence ratio was found to be 0.977 ± 0.028.

Consider GTTAGGCGGT, for which the switch fluorescence ratio amounted to 1.01 ± 0.014.

As for TCGTACAGTT, the switch fluorescence ratio stood at 1.03 ± 0.02.
